Ends that are not written are not given here.
How the values were obtained:
Assay in all cases: peptide microarray
ApoC3 peptide … D45E = molecular target: T1, ApoC3 peptide … D45E (human, not fully specified (bridges); also: cyclic constrained)
T1 peptide: ARGWVTEGFSSLK
In short: (§1)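 Peptide microarrays of ApoC3-derived peptides incubated with antibody samples, then stained with goat anti-human IgG (Fc) DyLight680 (1:5000) and anti-HA DyLight800 (1:2000) control. Read-out by fluorescence scanning at intensities 7/7 (red/green); a secondary-only pre-stain checked background, HA frame peptides served as quality control.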

ApoC3 peptide … G46I = molecular target: T2, ApoC3 peptide … G46I (human, not fully specified (bridges); also: cyclic constrained)
T2 peptide: ARGWVTDIFSSLK
In short: as §1

ApoC3 peptide … A39P = molecular target: T3, ApoC3 peptide … A39P (human, cyclic constrained)
T3 peptide: PRGWVTDGFSSLK
In short: as §1

ApoC3 peptide … G41I = molecular target: T4, ApoC3 peptide … G41I (human, also: cyclic constrained)
T4 peptide: ARIWVTDGFSSLK
In short: as §1

ApoC3 peptide … D45I = molecular target: T5, ApoC3 peptide … D45I (human, cyclic constrained)
T5 peptide: ARGWVTIGFSSLK
In short: as §1

ApoC3 peptide … S48W = ApoC3 peptide … S48W (human, cyclic constrained)
In short: as §1

ApoC3 peptide … S48K = ApoC3 peptide … S48K (human, cyclic constrained)
In short: as §1

ApoC3 peptide … S49K = molecular target: T6, ApoC3 peptide … S49K (human, cyclic constrained)
T6 peptide: ARGWVTDGFSKLK
In short: as §1

ApoC3 peptide … W42T = molecular target: T7, ApoC3 peptide … W42T (human, not fully specified (bridges); also: cyclic constrained)
T7 peptide: ARGTVTDGFSSLK
In short: as §1

ApoC3 peptide … G46M = molecular target: T8, ApoC3 peptide … G46M (human, not fully specified (bridges); also: cyclic constrained)
T8 peptide: ARGWVTDMFSSLK
In short: as §1

ApoC3 peptide … W42P = molecular target: T9, ApoC3 peptide … W42P (human, not fully specified (bridges); also: cyclic constrained)
T9 peptide: ARGPVTDGFSSLK
In short: as §1

ApoC3 peptide … D45K = molecular target: T10, ApoC3 peptide … D45K (human, cyclic constrained)
T10 peptide: ARGWVTKGFSSLK
In short: as §1

ApoC3 peptide … W42Q = molecular target: T11, ApoC3 peptide … W42Q (human, not fully specified (bridges); also: cyclic constrained)
T11 peptide: ARGQVTDGFSSLK
In short: as §1

ApoC3 peptide … S48G = molecular target: T12, ApoC3 peptide … S48G (human, not fully specified; cyclic constrained)
T12 peptide: ARGWVTDGFGSLK
In short: as §1

ApoC3 peptide … D45P = molecular target: T13, ApoC3 peptide … D45P (human, cyclic constrained)
T13 peptide: ARGWVTPGFSSLK
In short: as §1

ApoC3 peptide … V43D = molecular target: T14, ApoC3 peptide … V43D (human, not fully specified; cyclic constrained)
T14 peptide: ARGWDTDGFSSLK
In short: as §1

ApoC3 peptide … L50Q = molecular target: T15, ApoC3 peptide … L50Q (human, not fully specified (bridges); also: cyclic constrained)
T15 peptide: ARGWVTDGFSSQK
In short: as §1

ApoC3 peptide … L50G = molecular target: T16, ApoC3 peptide … L50G (human, not fully specified; cyclic constrained)
T16 peptide: ARGWVTDGFSSGK
In short: as §1

ApoC3 peptide … R40L = molecular target: T17, ApoC3 peptide … R40L (human, not fully specified (bridges); also: cyclic constrained)
T17 peptide: ALGWVTDGFSSLK
In short: as §1

ApoC3 peptide … A39C = molecular target: T18, ApoC3 peptide … A39C (human, cyclic constrained)
T18 peptide: CRGWVTDGFSSLK
In short: as §1

ApoC3 peptide … R40H = molecular target: T19, ApoC3 peptide … R40H (human, not fully specified (bridges); also: cyclic constrained)
T19 peptide: AHGWVTDGFSSLK
In short: as §1

ApoC3 peptide … W42F = molecular target: T20, ApoC3 peptide … W42F (human, not fully specified (bridges); also: cyclic constrained)
T20 peptide: ARGFVTDGFSSLK
In short: as §1

ApoC3 peptide … G41L = molecular target: T21, ApoC3 peptide … G41L (human, also: cyclic constrained)
T21 peptide: ARLWVTDGFSSLK
In short: as §1

ApoC3 peptide … T44I = molecular target: T22, ApoC3 peptide … T44I (human, not fully specified (bridges); also: cyclic constrained)
T22 peptide: ARGWVIDGFSSLK
In short: as §1

ApoC3 peptide … D45A = molecular target: T23, ApoC3 peptide … D45A (human, not fully specified (bridges); also: cyclic constrained)
T23 peptide: ARGWVTAGFSSLK
In short: as §1

ApoC3 peptide … W42A = molecular target: T24, ApoC3 peptide … W42A (human, not fully specified (bridges); also: cyclic constrained)
T24 peptide: ARGAVTDGFSSLK
In short: as §1

ApoC3 peptide … L50A = molecular target: T25, ApoC3 peptide … L50A (human, not fully specified; cyclic constrained)
T25 peptide: ARGWVTDGFSSAK
In short: as §1

ApoC3 peptide … K51L = molecular target: T26, ApoC3 peptide … K51L (human, not fully specified; cyclic constrained)
T26 peptide: ARGWVTDGFSSLL
In short: as §1

B1: anti-ApoC3 antibody 14C7 (antibody, V domains shown)
VH: QVQVQESGPGLVKPSQTLSLTCTVSGGSITTNSYYWSWIRQPPGKGLEWMGAIDYSGDTYYSPSLKSRTSISRDTSKNQFTLQLTSVTPEDTAVYYCVSRIPTGEYWGQGTQVTVSS
VL: QTVVTQEPSLSVSPGGTVTLTCGLNSGSVTSSNYPDWYQQTPGQAPRLLIYNTNSRHSGVPSRFSGSISGNKAALTITGAQPEDEADYYCALYMGSDSVVFGGGTHLTVL
notes: it was detected with goat anti-human IgG (Fc); also called mAb 14C7; llama antibody 14C7
% of binding to wild-type peptide (ApoC3 peptide … D45E): 40% | % of binding to wild-type peptide (ApoC3 peptide … G46I): 0% | % of binding to wild-type peptide (ApoC3 peptide … A39P): 166% | % of binding to wild-type peptide (ApoC3 peptide … G41I): 5.33% | % of binding to wild-type peptide (ApoC3 peptide … D45I): 2.04% | % of binding to wild-type peptide (ApoC3 peptide … S48W): 3.49% | % of binding to wild-type peptide (ApoC3 peptide … S48K): 90% | % of binding to wild-type peptide (ApoC3 peptide … S49K): 3.23% | % of binding to wild-type peptide (ApoC3 peptide … W42T): 186% | % of binding to wild-type peptide (ApoC3 peptide … G46M): 0% | % of binding to wild-type peptide (ApoC3 peptide … W42P): 18.6% | % of binding to wild-type peptide (ApoC3 peptide … D45K): 39.4% | % of binding to wild-type peptide (ApoC3 peptide … W42Q): 93.1% | % of binding to wild-type peptide (ApoC3 peptide … S48G): 3.7% | % of binding to wild-type peptide (ApoC3 peptide … D45P): 0% | % of binding to wild-type peptide (ApoC3 peptide … V43D): 0% | % of binding to wild-type peptide (ApoC3 peptide … L50Q): 0.12% | % of binding to wild-type peptide (ApoC3 peptide … L50G): 0% | % of binding to wild-type peptide (ApoC3 peptide … R40L): 54.2% | % of binding to wild-type peptide (ApoC3 peptide … A39C): 77.5% | % of binding to wild-type peptide (ApoC3 peptide … R40H): 44.4% | % of binding to wild-type peptide (ApoC3 peptide … W42F): 242% | % of binding to wild-type peptide (ApoC3 peptide … G41L): 6.27% | % of binding to wild-type peptide (ApoC3 peptide … T44I): 1.86% | % of binding to wild-type peptide (ApoC3 peptide … D45A): 45.3% | % of binding to wild-type peptide (ApoC3 peptide … W42A): 116% | % of binding to wild-type peptide (ApoC3 peptide … L50A): 0% | % of binding to wild-type peptide (ApoC3 peptide … K51L): 0.33%
